How the values were obtained:
human C5L2 (human) [1] = molecular target: human C5L2 (human) (UniProt Q9P296); assay: competition with 50 pM 125I-C3a on C5L2-transfected RBL cells, 4 C
human C5L2 (human) [2] = molecular target: human C5L2 (human) (UniProt Q9P296); assay: competition with 50 pM 125I-C5a on C5L2-transfected RBL cells, 4 C
human C5L2 (human) [3] = molecular target: human C5L2 (human) (UniProt Q9P296); assay: flow cytometry, binding/uptake of FLUOS-ASP on HEK 293 cells transiently transfected with C5L2, 30 min at 37 C

Chain of recombinant His6-tagged C3a, P01024 672-748 (ligand; other documents disagree on this pair) (P01024 672-748 limits assumed): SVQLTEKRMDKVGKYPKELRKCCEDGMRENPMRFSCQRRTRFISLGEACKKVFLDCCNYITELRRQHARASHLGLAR
Chain of recombinant C3a des-Arg^77, P01024 672-747 (ligand; other documents disagree on this pair) (P01024 672-747 limits assumed): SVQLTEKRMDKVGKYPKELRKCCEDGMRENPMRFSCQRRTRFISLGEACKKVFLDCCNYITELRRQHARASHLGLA
Chain of human C5L2 (human) (Q9P296 whole entry): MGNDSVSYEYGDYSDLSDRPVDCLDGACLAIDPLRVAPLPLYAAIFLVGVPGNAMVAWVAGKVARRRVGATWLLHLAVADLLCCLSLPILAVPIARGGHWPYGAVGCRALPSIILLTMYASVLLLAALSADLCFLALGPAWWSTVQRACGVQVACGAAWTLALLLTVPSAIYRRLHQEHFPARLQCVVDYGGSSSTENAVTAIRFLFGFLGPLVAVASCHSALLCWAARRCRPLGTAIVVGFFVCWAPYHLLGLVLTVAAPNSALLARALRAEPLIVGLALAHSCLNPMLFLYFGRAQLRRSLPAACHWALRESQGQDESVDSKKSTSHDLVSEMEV

IC50 (human C5L2 (human) [1]) [nM]	pD2 (human C5L2 (human) [1])	IC50 (human C5L2 (human) [2]) [nM]	pD2 (human C5L2 (human) [2])	EC50 (human C5L2 (human) [3]) [nM]	Substance
167	6.78 -log IC50	230000	4.64 -log IC50		recombinant His6-tagged C3a, P01024 672-748 (ligand; other documents disagree on this pair)
				3	plasma ASP (C3a des-Arg^77), purified from human plasma, P01024 672-747 (ligand; FLUOS (fluorescein) label in the flow cytometry assays, ^125I label in one assay; labelled residues not stated; other documents disagree on this pair)
526	6.24 -log IC50	180000	4.73 -log IC50		recombinant C3a des-Arg^77, P01024 672-747 (ligand; other documents disagree on this pair)
